Results as given in patent US8242240B2, “Anti-inflammatory compounds and uses thereof” (Yale University, priority 2000, dated 2012).

Target: T1, IKKα-NEMO interaction (Homo sapiens, UniProt Q9Y6K9)
T1 construct: bacterially expressed version of full length NEMO fused at its NH2-terminus to glutathione S-transferase; made in house; host or cells: bacteria (GST-NEMO); in vitro transcription/translation (IKKα)
Assay: GST pull-down of IKKα by GST-NEMO in the presence of NBD peptide
Assay type: binding
Conditions: peptide 500 and 1000 μM
Description: (A) Sequences of the NBD wild type (SEQ ID NO:177) and scrambled control peptides (SEQ ID NO:178). The wild type peptide corresponds to residues 734 to 744 of IKKβ. (B) GST pull-down analysis was performed using GST-NEMO and in vitro transcribed and translated IKKα (upper panel) and IKKβ (middle panel) in the presence or absence of either vehicle (2% DMSO), scrambled or wild type NBD peptide (500 and 1000 μM of each peptide). […] (C) Densitometric analysis of autoradiograph bands obtained following GST pull-down of IKKa and IKKb using GST-NEMO in the presence of a range of concentrations of wild type NBD peptide. […] The data are presented as the pixel density as a percentage of control (no peptide) and represent means±sd (n=11). Analysis was performed using the NIH-Image software.

T1 sequence (Q9Y6K9 whole entry, the tested form may be a part): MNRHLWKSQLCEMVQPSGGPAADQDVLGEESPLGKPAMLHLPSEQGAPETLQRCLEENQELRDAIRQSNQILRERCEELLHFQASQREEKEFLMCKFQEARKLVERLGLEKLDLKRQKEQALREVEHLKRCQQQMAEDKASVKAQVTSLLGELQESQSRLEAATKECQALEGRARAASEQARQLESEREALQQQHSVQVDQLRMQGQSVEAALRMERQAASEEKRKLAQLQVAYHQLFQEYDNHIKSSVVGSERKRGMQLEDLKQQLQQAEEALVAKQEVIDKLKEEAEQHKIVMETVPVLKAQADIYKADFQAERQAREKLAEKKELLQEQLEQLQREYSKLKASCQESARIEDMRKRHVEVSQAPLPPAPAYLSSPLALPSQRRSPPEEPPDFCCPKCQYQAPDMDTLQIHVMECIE

## NBD wild type (SEQ ID NO:177): wild type peptide corresponding to residues 734 to 744 of IKKβ (FTALDWSWLQT; Description of Unknown: Unknown wildtype NBD peptide)
  interaction of IKKα with NEMO (GST pull-down): prevents
